Measured values from publication PMC8902471.
Positions count from the first letter of the chain named.

What was measured:
Test in all cases: EMSA
Ets-1 ΔN301 MT2 = target: T1, Ets-1 ΔN301 MT2 (Mus musculus (murine), UniProt P27577 301-440, L393A;Y396A)
T1 sequence: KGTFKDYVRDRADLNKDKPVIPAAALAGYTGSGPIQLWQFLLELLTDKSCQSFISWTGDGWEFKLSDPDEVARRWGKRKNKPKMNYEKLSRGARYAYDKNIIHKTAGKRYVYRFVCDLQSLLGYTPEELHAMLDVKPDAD

Ets-1 ΔN301 MT4 = target: T2, Ets-1 ΔN301 MT4 (Mus musculus (murine), UniProt P27577 301-440, W338A)
T2 sequence: T1 sequence with W38A, A93L, A96Y

Ets-1 ΔN301 MT3 = target: T3, Ets-1 ΔN301 MT3 (Mus musculus (murine), UniProt P27577 301-440, L337A)
T3 sequence: T1 sequence with L37A, A93L, A96Y

Ets-1 ΔN301 MT1 = target: T4, Ets-1 ΔN301 MT1 (Mus musculus (murine), UniProt P27577 301-440, L337A;W338A)
T4 sequence: T1 sequence with L37A, W38A, A93L, A96Y

Measured: binding result

B1: 27-bp high-affinity ETS site DNA (dsDNA)
DNA 1: TCGACGGCCAAGCCGGAAGTGAGTGCC
DNA 2: TCGAGGCACTCACTTCCGGCTTGGCCG
no binding: all assays above
